Source: US8236762B2, “Peptide-cytotoxic conjugates” (IPSEN Pharma S.A.S., priority 2006, dated 2012)
Read-outs that look alike come from different tables or passages of the source. Numbered stars: 1 amine (or outer) side, 2 acyl side, 3 side chain; on linkers, the order of the positions; unused ones are H or OH. Square brackets hold non-standard residues; d marks the D form. Peptide text beside a SMILES is read from it. * marks the point of attachment. Pipz(1-CH2CO,4-CH2CH2NH) = O=C(CN1CCN(CCN[*:1])CC1)[*:2]; X1 = CC[C@@]1(O*)C(=O)OCc2c1cc1n(c2=O)Cc2cc3ccccc3nc2-1; Suc = O=C(CCC(=O)[*:2])[*:1]; Nle = CCCC[C@H](N)C(=O)O; AEEA = NCCOCCOCC(=O)O; GABA = NCCCC(=O)O; βAla = NCCC(=O)O

Experiments:
[1] = biological target: T1, hSSTR-1 (Homo sapiens, UniProt P30872); assay: Somatostatin receptor radioligand binding, hSSTR-1 (CHO-K1 membranes); conditions: read-out: Ki hSSTR1 ± (SEM)
T1 construct: expressed in transfected cells; host or cells: CHO-K1
T1 sequence (P30872 whole entry): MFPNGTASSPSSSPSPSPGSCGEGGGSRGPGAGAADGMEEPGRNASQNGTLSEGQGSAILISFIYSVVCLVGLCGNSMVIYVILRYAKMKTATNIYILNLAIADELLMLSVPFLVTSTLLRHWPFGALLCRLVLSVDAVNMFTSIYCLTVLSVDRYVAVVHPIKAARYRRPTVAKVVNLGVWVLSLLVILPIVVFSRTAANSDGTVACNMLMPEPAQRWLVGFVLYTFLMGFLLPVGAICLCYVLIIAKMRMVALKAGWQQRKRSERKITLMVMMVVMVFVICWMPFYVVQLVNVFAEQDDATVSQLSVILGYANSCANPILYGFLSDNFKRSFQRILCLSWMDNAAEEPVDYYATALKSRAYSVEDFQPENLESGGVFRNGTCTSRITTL
Method: Membranes for in vitro receptor binding assays were obtained by homogenizing (Polytron setting 6, 15 sec) CHO-K1 cells expressing human somatostatin receptor subtypes hSSTR-1, hSSTR-2, hSSTR-3, hSSTR-4 or hSSTR-5 in ice-cold 50 mM Tris-HCl. The homogenized cells were centrifuged twice at 39,000 g for 10 minutes with an intermediate resuspension in fresh buffer. The final pellets were resuspended in 10 mM Tris-HCl to prepare the cell membrane homogenate for use in the binding assay.
The final assay volume was 0.3 ml.
The cell membrane homogenate was incubated with the radioligands for 90 minutes at 25° C. The incubations were terminated by rapid filtration through GF/C filters pre-soaked in 0.3% polyethylenimine using a Brandel® filtration manifold (Gaithersberg, Md., U.S.A.). Each tube and filter was washed three times with 5-ml aliquots of ice-cold buffer. Specific binding was defined as the total radioligand bound minus that bound in the presence of 1000 nM SRIF-14 (for hSSTR-1, hSSTR-3, hSSTR-4 or hSSTR-5), or 1000 nM DPhe-c(Cys-Tyr-D-Trp-Lys-Abu-Cys)-Thr-NH2 for hSSTR-2.

[2] = Half-life determination in mouse plasma (LC-MS); assay type: in vitro ADME; conditions: 37° C.
Method: (§1) Samples containing approximately 50 μg/ml up to and including approximately 500 μg/ml of test compound according to Formula IA or IB or II was added to 450 μl human or mouse plasma, vortexed briefly and incubated at 37° C. At various time intervals, e.g., 0, 0.5, 1, 2, 4, 6, 8, 24, 36 and 48 hours, 50 μl of the compound-plasma mixture was added to 150 μl acetonitrile in a microcentrifuge tube. The mixture was vortexed, centrifuged for 5 minutes at 10K RPM, and 135 μl of supernatant was transferred to an injection vial. The recovered supernatant was analyzed by using a liquid chromatography-mass spectrophotometer system (LC-MS) consisting of a Finnigan Deca XP® mass spectrometer with an ESI probe at the positive ion mode. HPLC separation was carried out on a Luna 3μ C8 (2)® 3×50 mm column with a gradient decreasing from 100% A to 80% B for 10 minutes at a flow rate of 0.25 ml/min. Buffer A was 0.1% acetic acid in water and buffer B was 0.1% acetic acid acetonitrile.

[3] = Half-life determination in human plasma (LC-MS); assay type: in vitro ADME; conditions: 37° C.
Method: as §1

[4] = biological target: T2, hSSTR-4 (Homo sapiens, UniProt P31391); assay: Somatostatin receptor radioligand binding, hSSTR-4 (CHO-K1 membranes); conditions: read-out: Ki hSSTR4 ± (SEM)
T2 construct: expressed in transfected cells; host or cells: CHO-K1
T2 sequence (P31391 whole entry): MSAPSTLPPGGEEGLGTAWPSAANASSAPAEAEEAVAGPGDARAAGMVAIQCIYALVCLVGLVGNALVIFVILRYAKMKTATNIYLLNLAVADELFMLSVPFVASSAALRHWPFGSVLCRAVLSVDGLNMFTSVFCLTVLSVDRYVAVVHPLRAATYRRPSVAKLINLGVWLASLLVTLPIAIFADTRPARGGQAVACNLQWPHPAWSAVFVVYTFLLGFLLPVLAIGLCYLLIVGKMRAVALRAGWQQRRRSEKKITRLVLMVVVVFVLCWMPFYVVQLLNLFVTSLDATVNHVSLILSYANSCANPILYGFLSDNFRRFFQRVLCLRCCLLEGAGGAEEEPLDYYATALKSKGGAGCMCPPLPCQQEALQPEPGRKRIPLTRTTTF

[5] = [125I-Tyr11]SRIF-14, value of 1000 indicates at least 1000

Molecule	Ki [1]	half-life [2]	half-life [3]	Ki [4]	Ki [1, 5]	Ki [4, 5]
CC[C@@H]1NC(=O)[C@H](CCCCN)NC(=O)[C@@H](Cc2c[nH]c3ccccc23)NC(=O)[C@H](Cc2ccc(O)cc2)NC(=O)[C@@H](NC(=O)[C@@H](Cc2ccccc2)NC(=O)CN2CCN(CCNC(=O)COCCOCCNC(=O)COCCOCCNC(=O)COCCOCCNC(=O)COCCOCCNC(=O)CCC(=O)N[C@@H](CNC(=O)OCc3ccccc3)C(=O)O[C@]3(CC)C(=O)OCc4c3cc3n(c4=O)Cc4cc5ccccc5nc4-3)CC2)CSSC[C@@H](C(=O)N[C@H](C(N)=O)[C@@H](C)O)NC1=O [Example 8, Camptothecin-rvDap(Z)-Suc-(Doc)4-Aepa-D-Phe-c(Cys-Tyr-D-Trp-Lys-Abu-Cys)-Thr-NH2]	≥ 1000 nM	2.2 h	0.7 h	≥ 1000 nM		
CC[C@@H]1NC(=O)[C@H](CCCCN)NC(=O)[C@@H](Cc2c[nH]c3ccccc23)NC(=O)[C@H](Cc2ccc(O)cc2)NC(=O)[C@@H](NC(=O)[C@@H](Cc2ccccc2)NC(=O)CN2CCN(CCNC(=O)COCCOCCNC(=O)COCCOCCNC(=O)COCCOCCNC(=O)COCCOCCNC(=O)CCC(=O)N[C@H](CNC(=O)OCc3ccccc3)C(=O)O[C@]3(CC)C(=O)OCc4c3cc3n(c4=O)Cc4cc5ccccc5nc4-3)CC2)CSSC[C@@H](C(=O)N[C@H](C(N)=O)[C@@H](C)O)NC1=O [Example 9, Camptothecin-rvD-Dap(Z)-Suc-(Doc)4-Aepa-D-Phe-c(Cys-Tyr-D-Trp-Lys-Abu-Cys)-Thr-NH2]	≥ 1000 nM	1.7 h	0.7 h	≥ 1000 nM		
CCc1c2c(nc3ccc(O)cc13)-c1cc3c(c(=O)n1C2)COC(=O)[C@@]3(CC)OC(=O)CNC(=O)CCC(=O)NCCOCCOCC(=O)NCCOCCOCC(=O)NCCOCCOCC(=O)NCCOCCOCC(=O)NCCN1CCN(CC(=O)N[C@H](Cc2ccccc2)C(=O)N[C@H]2CSSC[C@@H](C(=O)N[C@H](C(N)=O)[C@@H](C)O)NC(=O)[C@H](CC)NC(=O)[C@H](CCCCN)NC(=O)[C@@H](Cc3c[nH]c4ccccc34)NC(=O)[C@H](Cc3ccc(O)cc3)NC2=O)CC1 [Example 19, SN38-rvGly-Suc-(Doc)4-Aepa-D-Phe-c(Cys-Tyr-D-Trp-Lys-Abu-Cys)-Thr-NH2]	≥ 1000 nM	2.6 h	6.9 h			
CCCC[C@H](NC(=O)[C@H](CC(C)C)NC(=O)[C@H](Cc1c[nH]cn1)NC(=O)CCNC(=O)[C@@H](NC(=O)[C@H](C)NC(=O)[C@H](Cc1c[nH]c2ccccc12)NC(=O)[C@H](CCC(N)=O)NC(=O)[C@@H](Cc1ccc(O)cc1)NC(=O)[C@@H](CO)NC(=O)[C@H](CCCCN)NC(=O)COCCOCCNC(=O)COCCOCCNC(=O)COCCOCCNC(=O)COCCOCCNC(=O)CCC(=O)NCC(=O)O[C@]1(CC)C(=O)OCc2c1cc1n(c2=O)Cc2cc3ccccc3nc2-1)C(C)C)C(N)=O [Example 25, Camptothecin-rvGly-Suc-(Doc)4-Lys-D-Ser-D-Tyr-Gln-Trp-Ala-Val-β-Ala-His-Leu-Nle-NH2] ({X1-Gly-Suc-AEEA-AEEA-AEEA-AEEA}-K[dS][dY]QWAV[βAla]HL[Nle]-NH2)		2.6 h	2.4 h			
CCCC[C@H](NC(=O)[C@H](CC(C)C)NC(=O)[C@H](Cc1c[nH]cn1)NC(=O)CCNC(=O)[C@@H](NC(=O)[C@H](C)NC(=O)[C@H](Cc1c[nH]c2ccccc12)NC(=O)[C@H](CCC(N)=O)NC(=O)[C@@H](Cc1ccc(O)cc1)NC(=O)[C@@H](C)NC(=O)[C@H](CCCNC(=N)N)NC(=O)COCCOCCNC(=O)COCCOCCNC(=O)COCCOCCNC(=O)COCCOCCNC(=O)CCC(=O)NCC(=O)O[C@]1(CC)C(=O)OCc2c1cc1n(c2=O)Cc2cc3ccccc3nc2-1)C(C)C)C(N)=O [Example 26, Camptothecin-rvGly-Suc-(Doc)4-Arg-D-Ala-D-Tyr-Gln-Trp-Ala-Val-β-Ala-His-Leu-Nle-NH2] ({X1-Gly-Suc-AEEA-AEEA-AEEA-AEEA}-R[dA][dY]QWAV[βAla]HL[Nle]-NH2)		1.8 h	1.4 h			
CCCC[C@H](NC(=O)[C@H](CC(C)C)NC(=O)[C@H](Cc1c[nH]cn1)NC(=O)CCNC(=O)[C@@H](NC(=O)[C@H](C)NC(=O)[C@H](Cc1c[nH]c2ccccc12)NC(=O)[C@H](CCC(N)=O)NC(=O)[C@@H](Cc1ccc(O)cc1)NC(=O)[C@@H](CO)NC(=O)CCCNC(=O)CN1CCN(CCNC(=O)COCCOCCNC(=O)COCCOCCNC(=O)COCCOCCNC(=O)COCCOCCNC(=O)CCC(=O)NCC(=O)O[C@]2(CC)C(=O)OCc3c2cc2n(c3=O)Cc3cc4ccccc4nc3-2)CC1)C(C)C)C(N)=O [Example 28, Camptothecin-rvGly-Suc-(Doc)4-Aepa-Gaba-D-Ser-D-Tyr-Gln-Trp-Ala-Val-β-Ala-His-Leu-Nle-NH2] ({X1-Gly-Suc-AEEA-AEEA-AEEA-AEEA}-[Pipz(1-CH2CO,4-CH2CH2NH)][GABA][dS][dY]QWAV[βAla]HL[Nle]-NH2)		2.9 h	1.9 h			
CC[C@@H]1NC(=O)[C@H](CCCCN)NC(=O)[C@@H](Cc2c[nH]c3ccccc23)NC(=O)[C@H](Cc2ccc(O)cc2)NC(=O)[C@@H](NC(=O)[C@@H](Cc2ccccc2)NC(=O)CN2CCN(CCNC(=O)COCCOCCOCCNC(=O)COCCOCCOCCNC(=O)COCCOCCOCCNC(=O)CCC(=O)N[C@H](CC(=O)O)C(=O)O[C@]3(CC)C(=O)OCc4c3cc3n(c4=O)Cc4cc5ccccc5nc4-3)CC2)CSSC[C@@H](C(=O)N[C@H](C(N)=O)[C@@H](C)O)NC1=O [Example 29, Camptothecin-rvDAsp-Suc-(Peg3)3-Aepa-DPhe-c(Cys-Tyr-DTrp-Lys-Abu-Cys)-Thr-NH2]	≥ 1000 nM	44.1 h	9.3 h			
CC[C@@H]1NC(=O)[C@H](CCCCN)NC(=O)[C@@H](Cc2c[nH]c3ccccc23)NC(=O)[C@H](Cc2ccc(O)cc2)NC(=O)[C@@H](NC(=O)[C@@H](Cc2ccccc2)NC(=O)CN2CCN(CCNC(=O)CCOCCOCCOCCOCCOCCOCCOCCOCCOCCOCCOCCOCCNC(=O)CCC(=O)N[C@H](CC(=O)O)C(=O)O[C@]3(CC)C(=O)OCc4c3cc3n(c4=O)Cc4cc5ccccc5nc4-3)CC2)CSSC[C@@H](C(=O)N[C@H](C(N)=O)[C@@H](C)O)NC1=O [Example 30, Camptothecin-rvDAsp-Suc-Peg11-Aepa-DPhe-c(Cys-Tyr-DTrp-Lys-Abu-Cys)-Thr-NH2]	≥ 1000 nM					
CC[C@@H]1NC(=O)[C@H](CCCCN)NC(=O)[C@@H](Cc2c[nH]c3ccccc23)NC(=O)[C@H](Cc2ccc(O)cc2)NC(=O)[C@@H](NC(=O)[C@@H](Cc2ccccc2)NC(=O)CN2CCN(CCNC(=O)COCCOCCNC(=O)COCCOCCNC(=O)COCCOCCNC(=O)COCCOCCNC(=O)CCC(=O)N[C@H](CCC(=O)O)C(=O)O[C@]3(CC)C(=O)OCc4c3cc3n(c4=O)Cc4cc5ccccc5nc4-3)CC2)CSSC[C@@H](C(=O)N[C@H](C(N)=O)[C@@H](C)O)NC1=O [Example 31, Camptothecin-rvDGlu-Suc-(Doc)4-Aepa-DPhe-c(Cys-Tyr-DTrp-Lys-Abu-Cys)-Thr-NH2]	≥ 1000 nM					
Camptothecin-rvD-Glu-Suc-(Doc)4-Aepa-D-Phe-c(Cys-Tyr-D-Trp-Lys-Abu-Cys)-Thr-NH2 and Camptothecin-rvGlu-Suc-(Doc)4-Aepa-D-Phe-c(Cys-Tyr-D-Trp-Lys-Abu-Cys)-Thr-NH2 [Example 6]					≥ 1000 nM	≥ 1000 nM
